Here are results for five molecules from patent US20120142585A1 (TEMPLE UNIVERSITY OF THE C0MMONWEALTH SYSTEM OF HIGHER …, published 2012).

Where no end group is shown, it is not given here. [ ]: non-standard residue; d: D form. NMeR = CN[C@@H](CCCNC(=N)N)C(=O)O; aThr = C[C@H](O)[C@H](N)C(=O)O; Nva = CCC[C@H](N)C(=O)O; Ahx = NCCCCCC(=O)O; βAla = NCCC(=O)O

Test [1] concerns the target T1, leptin receptor (ObR) naturally expressed on MCF-7, LN229 and LN18 cells (human). The test is described as follows: cell-based or functional assay.
The target of test [2] is T1, leptin receptor (ObR) naturally …. As to the kind of experiment: cell-based or functional assay. The source holds these as a separate data set.

B1: peptide of amino acid sequence Glu-Nva-Val-Ala-Leu-Ser-Arg-AcpNH2 [SEQ ID NO:51] (peptide)
peptide: E[Nva]VALSR[Ahx]-NH2
modifications: N-terminus assumed
SMILES: CCC[C@H](NC(=O)[C@@H](N)CCC(=O)O)C(=O)N[C@H](C(=O)N[C@@H](C)C(=O)N[C@@H](CC(C)C)C(=O)N[C@@H](CO)C(=O)N[C@@H](CCCNC(=N)N)C(=O)NCCCCCC(N)=O)C(C)C
On to B1, for which, in test [1], the “EC50, proliferation of ObR-positive cancer cells in the absence of leptin” value (shortened to “EC50, proliferation”) was greater than 500 nM; the “IC50, proliferation of ObR-positive cancer cells in the presence of leptin (6 nM)” value (from here on “IC50, proliferation … (6 nM)”) came out at 50 nM; the “IC100, proliferation of ObR-positive cancer cells in the presence of leptin (6 nM)” value (“IC100, proliferation” for short) came to 100 nM.
The like results for [dS]E[Nva]VALS[NMeR][βAla]-NH2 [peptide of amino acid sequence (D)-Ser-Glu-Nva-Val-Ala-Leu-Ser-N-MeArg-bAlaNH2 [SEQ ID NO:6]] were, in that order, greater than 1000 nM, 0.2 nM and less than 1 nM.

B2: peptide of amino acid sequence alloThr-Glu-Nva-Val-Ala-Leu-Ser-Arg-AcpNH2 [SEQ ID NO:49] (peptide)
peptide: [aThr]E[Nva]VALSR[Ahx]-NH2
modifications: N-terminus assumed
SMILES: CCC[C@H](NC(=O)[C@H](CCC(=O)O)NC(=O)[C@@H](N)[C@H](C)O)C(=O)N[C@H](C(=O)N[C@@H](C)C(=O)N[C@@H](CC(C)C)C(=O)N[C@@H](CO)C(=O)N[C@@H](CCCNC(=N)N)C(=O)NCCCCCC(N)=O)C(C)C
B2: in test [1], the “EC50, proliferation” value is greater than 1000 nM; the “IC50, proliferation … (6 nM)” value came out at 0.2 nM; the “IC100, proliferation” value worked out at 5 nM.

B3: peptide of amino acid sequence Thr-Glu-Nva-Val-Ala-Leu-Ser-Arg-AcpNH2 [SEQ ID NO:4] (peptide)
peptide: TE[Nva]VALSR[Ahx]-NH2
modifications: N-terminus assumed
SMILES: CCC[C@H](NC(=O)[C@H](CCC(=O)O)NC(=O)[C@@H](N)[C@@H](C)O)C(=O)N[C@H](C(=O)N[C@@H](C)C(=O)N[C@@H](CC(C)C)C(=O)N[C@@H](CO)C(=O)N[C@@H](CCCNC(=N)N)C(=O)NCCCCCC(N)=O)C(C)C
On to B3, for which the “IC50, proliferation and XTT metabolic activity assays, LN229 and MCF-7 cells with leptin” value in test [2] fell in the range of 2 to 3 nM. In test [1], the “EC50, proliferation” value is greater than 1000 nM; the “IC50, proliferation … (6 nM)” value stood at 5 nM; the “IC100, proliferation” value was 50 nM.

B4: peptide of amino acid sequence Thr-Glu-Nva-Nva-Ala-Leu-Ser-Arg-NvaNH2 [SEQ ID NO:47] (peptide)
peptide: TE[Nva][Nva]ALSR[Nva]-NH2
modifications: N-terminus assumed
SMILES: CCC[C@H](NC(=O)[C@H](CCCNC(=N)N)NC(=O)[C@H](CO)NC(=O)[C@H](CC(C)C)NC(=O)[C@H](C)NC(=O)[C@H](CCC)NC(=O)[C@H](CCC)NC(=O)[C@H](CCC(=O)O)NC(=O)[C@@H](N)[C@@H](C)O)C(N)=O
Turning to B4, in test [1], the “EC50, proliferation” value is greater than 1000 nM and the “IC50, proliferation … (6 nM)” value was found to be 1000 nM.
